Measurements published in article PMC12342132, “Mechanistic insights into the GEF activity of the human MON1A/CCZ1/C18orf8 complex” (Protein & Cell, 2025).

T1: C18orf8 (1–657) (human, UniProt Q96DM3 1-657)
T1 construct: Subunit of m3, written alone for the pairwise contacts in the structure
T1 sequence (looked up): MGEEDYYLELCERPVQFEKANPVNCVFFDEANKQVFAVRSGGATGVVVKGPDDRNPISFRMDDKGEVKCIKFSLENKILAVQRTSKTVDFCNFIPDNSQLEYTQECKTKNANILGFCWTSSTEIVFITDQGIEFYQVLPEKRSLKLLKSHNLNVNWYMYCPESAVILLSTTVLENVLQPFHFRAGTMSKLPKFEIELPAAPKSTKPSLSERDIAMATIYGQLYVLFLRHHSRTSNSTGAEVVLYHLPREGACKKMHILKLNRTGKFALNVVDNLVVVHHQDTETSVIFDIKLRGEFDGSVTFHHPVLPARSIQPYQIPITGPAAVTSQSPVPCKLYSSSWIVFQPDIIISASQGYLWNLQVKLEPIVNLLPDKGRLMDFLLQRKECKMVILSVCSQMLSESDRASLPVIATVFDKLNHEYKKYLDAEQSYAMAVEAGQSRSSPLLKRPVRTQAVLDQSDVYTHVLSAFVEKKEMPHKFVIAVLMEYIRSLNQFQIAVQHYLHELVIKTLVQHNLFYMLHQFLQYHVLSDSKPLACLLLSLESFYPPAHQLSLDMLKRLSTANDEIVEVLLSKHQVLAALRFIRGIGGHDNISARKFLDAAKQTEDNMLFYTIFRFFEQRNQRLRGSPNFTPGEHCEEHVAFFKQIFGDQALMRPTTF

B1: CCZ1 (1–482) (natural protein, human, UniProt P86791 1-482, looked up)
chain: MAAAAAGAGSGPWAAQEKQFPPALLSFFIYNPRFGPREGQEENKILFYHPNEVEKNEKIRNVGLCEAIVQFTRTFSPSKPAKSLHTQKNRQFFNEPEENFWMVMVVRNPIIEKQSKDGKPVIEYQEEELLDKVYSSVLRQCYSMYKLFNGTFLKAMEDGGVKLLKERLEKFFHRYLQTLHLQSCDLLDIFGGISFFPLDKMTYLKIQSFINRMEESLNIVKYTAFLYNDQLIWSGLEQDDMRILYKYLTTSLFPRHIEPELAGRDSPIRAEMPGNLQHYGRFLTGPLNLNDPDAKCRFPKIFVNTDDTYEELHLIVYKAMSAAVCFMIDASVHPTLDFCRRLDSIVGPQLTVLASDICEQFNINKRMSGSEKEPQFKFIYFNHMNLAEKSTVHMRKTPSVSLTSVHPDLMKILGDINSDFTRVDEDEEIIVKAMSDYWVVGKKSDRRELYVILNQKNANLIEVNEEVKKLCATQFNNIFFLD
notes: human CCZ1, residues 1-482; Subunit of m3, written alone for the pairwise contacts in the structure

How the values were obtained:
CCZ1 (1–482) = molecular target: B1; experiment: cryo-EM structure; MON1A (235–652)/CCZ1 (1–482)/C18orf8 (1–657)/Rab7A (1–181) T22N complex, 3.41 Å; settings: both partners purified
C18orf8 (1–657) = molecular target: T1, C18orf8 (1–657); experiment: as above; settings: both partners purified

Row | binding result (CCZ1 (1–482)) | binding result (C18orf8 (1–657)) | Binder
1 | binds | binds | MON1A (235–652) (domain or fragment, human, UniProt Q86VX9 235-652, looked up, Subunit of m3, written alone for the pairwise contacts in the structure) GTTEGDEEDATEAWRLHQKHVFVLSEAGKPVYSRYGSEEALSSTMGVMVALVSFLEADKNAIRSIHADGYKVVFVRRSPLVLVAVARTRQSAQELAQELLYIYYQILSLLTGAQLSHIFQQKQNYDLRRLLSGSERITDNLLQLMARDPSFLMGAARCLPLAAAVRDTVSASLQQARARSLVFSILLARNQLVALVRRKDQFLHPIDLHLLFNLISSSSSFREGEAWTPVCLPKFNAAGFFHAHISYLEPDTDLCLLLVSTDREDFFAVSDCRRRFQERLRKRGAHLALREALRTPYYSVAQVGIPDLRHFLYKSKSSGLFTSPEIEAPYTSEEEQERLLGLYQYLHSRAHNASRPLKTIYYTGPNENLLAWVTGAFELYMCYSPLGTKASAVSAIHKLMRWIRKEEDRLFILTPLTY
2 | – | binds | B1
